Measurements reported in patent US20160257946A1.

Molecular target: Her2 on the Her2-positive breast cancer cell line SKBR3 (UniProt P04626)
Experiment: cell-based or functional assay

Question: For “trastuzumab-MMAF conjugates (trastuzumab-HC136-MMAF) (antibody)”, which cytotoxicity (cell killing, Cell Titer-Glo viability) on SKBR3 cells, EC50 is on record?
Answer: Its cytotoxicity (cell killing, Cell Titer-Glo viability) on SKBR3 cells, EC50 is 0.043 to 0.071 nM.
